The target in test [1] is human CD33 (human) (UniProt P20138). Briefly: cell-based or functional assay.
Test [2] shares this target. Briefly: flow cytometry, human primary dendritic cells. A general note: In flow cytometry, cells or beads pass a laser one at a time.
Test [3] shares this target. Briefly: flow cytometry, human primary T cells.
Test [4] shares this target. Briefly: flow cytometry, human primary macrophages.
Test [5] shares this target. Briefly: flow cytometry, human primary monocytes.

Sequence of human CD33 (human) (P20138 18-364): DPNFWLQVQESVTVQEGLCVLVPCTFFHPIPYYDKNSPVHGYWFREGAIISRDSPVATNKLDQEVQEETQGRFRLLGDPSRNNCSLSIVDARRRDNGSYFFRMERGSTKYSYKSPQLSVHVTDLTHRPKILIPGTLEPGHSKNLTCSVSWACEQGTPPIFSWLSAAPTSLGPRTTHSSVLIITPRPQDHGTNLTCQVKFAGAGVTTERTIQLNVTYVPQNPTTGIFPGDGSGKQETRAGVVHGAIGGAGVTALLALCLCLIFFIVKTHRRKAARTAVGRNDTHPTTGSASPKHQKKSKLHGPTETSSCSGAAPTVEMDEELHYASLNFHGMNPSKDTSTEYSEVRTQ

B1: C-51 (antibody, V domains shown)
VH: QLQLQESGPGLVKPSETLSLTCTVSGGSISSSSYYWGWIRQPPGKGLEWIGSIYYSGSTYYNPSLKSRVTISVDTSKNQFSLKLSSVTAADTAVYYCARGAPHDYGGGVGWFDPWGQGTTVTVSS
VL: DIQMTQSPSSVSASVGDRVTITCRASQGISSWLAWYQQKPGKAPKLLIYAASNLQSGVPSRFSGSGSGTDFTLTISSLQPEDFATYYCQQSRVFPWTFGGGTKVEIK
As to B1, in the test with human CD33 (human) [1], the Percent CD33 Surface Expression, DC % CD33 was 86% and the Percent CD33 Surface Expression, Monocyte % CD33 is 88%. In the test with human CD33 (human) [2], this molecule yielded a DC MFI of 496. The molecule also had a T cell MFI in the test with human CD33 (human) [3] of 29.3. Besides, the Macrophage MFI in the test with human CD33 (human) [4] is 656. The same molecule gave a Monocyte MFI with human CD33 (human) [5] of 126.

Values taken from patent US20220281976A1.
